Experimental data taken from paper PMC4520616, “Biochemical Characterization of the Split Class II Ribonucleotide Reductase from Pseudomonas aeruginosa” (PLoS ONE, 2015).

B2: NrdJa subunit of the split class II ribonucleotide reductase from Pseudomonas aeruginosa (enzyme, UniProt Q9HT76 1-734, looked up)
chain: MLRTVAGFGRPNNHREVNQRMAKTDARSPRTERGTIALQDASQDIWDKKYRLKSKDGTPVDASVDGTWQRVARALADVEDKASREHWYGRFLWALRNGAIPAGRIISNAGALGHKPATSTINCTVSGTIQDSMDNILEKVHEAGLTLKAGCGIGYEFSTLRPRGAYVSGAGAYTSGPLSFMDIYDKMCFTVSSAGGRRGAQMGTFDVSHPDVREFIRAKREDGRLRQFNLSLLITDQFMQAVEQDADWPLVFPVHVKERDEIDLDDPNAVVWREWPIQDDYVQRADGLVACKVYGQVRARHLWDMIMVSTYDYAEPGFILIDRVNELNNNWWCEAIRATNPCGEQPLPPYGSCLLGSVNLTCFVEQPFGDEARFDWDRFREVVRVFTRMLDNVVEINGLPLEQQRQEILGKRRHGMGFLGLGSTLTLLKLRYGSPEACVFTEEVAREMALVGWEVALELAREKGPAPILAQDYEVTAEMLRKRPEMAADGYKAGDRIRGSVLHAKYSRYMQRVAEHAPELIEALAETGARFTHHSSIAPTGTISLSLANNASNGIEPSFAHHYSRNLIREGRKTKEKVEVYSYELLAYRTLVNAQALPDSDDPARRLPDYFITADSVTPAQHMDIQAAAQKWVDSSISKTANVPTDYPFEDFKDIYRYAWHQGLKGCTTFRFNPEAFQGVLVKESDLEKTRYRFELEDGSVVEFKGNEQVEYDGEIHTAANLFDALKEGYYGKY
modifications: biotin linker (0.15 biotin linker/NrdJa monomer) only where NrdJa was immobilised on the streptavidin chip for SPR
notes: NrdJa, large subunit of the split class II ribonucleotide reductase (NrdJ) of Pseudomonas aeruginosa; 734 residues in PA; the nrdJa open reading frame was cloned into pET22; Monomer or dimer according to the allosteric effector (GEMMA); also called PA NrdJa

Legend:
[1] = substrate: Nc1ccn([C@@H]2O[C@H](COP(=O)(O)OP(=O)(O)OP(=O)(O)O)[C@@H](O)[C@H]2O)c(=O)n1; assay: 3H-CTP reduction assay, Michaelis-Menten fit; assay type: biochemical, Pseudomonas aeruginosa; conditions: 1 mM ATP, 100 μM AdoCbl, 30 mM DTT, 10 mM MgCl2, pH 7.5, labelled compound
[2] = target: the molecule itself; assay: gas phase electrophoretic macromolecule analysis (GEMMA); 0.02 mg/ml NrdJa in 40 mM ammonium acetate pH 7.8, 0.005% Tween-20, 2 mM DTT; with 50 uM dTTP and 1:1 Mg2+
[3] = target: B2; assay: SPR; biotinylated NrdJb immobilised on streptavidin chip, 0-2 uM NrdJa injected; 30 mM Tris-HCl pH 7.0, 10 mM MgCl2, 0.025% P20, 2 mM DTT; with 40 uM AdoCbl; steady state fit; apparent Kd; conditions: both partners purified
[4] = target: B2; assay: cell-based or functional assay
[5] = target: B2; assay: SPR; biotinylated NrdJb immobilised on streptavidin chip, 0-2 uM NrdJa injected; 30 mM Tris-HCl pH 7.0, 10 mM MgCl2, 0.025% P20, 2 mM DTT; with 0.5 mM CTP; steady state fit; apparent Kd; conditions: both partners purified
[6] = target: B2; assay: SPR; biotinylated NrdJb immobilised on streptavidin chip, 0-2 uM NrdJa injected; 30 mM Tris-HCl pH 7.0, 10 mM MgCl2, 0.025% P20, 2 mM DTT; with 0.5 mM dATP + 0.5 mM CTP + 40 uM AdoCbl; steady state fit; apparent Kd; conditions: both partners purified
[7] = target: B2; assay: SPR; biotinylated NrdJb immobilised on streptavidin chip, 0-2 uM NrdJa injected; 30 mM Tris-HCl pH 7.0, 10 mM MgCl2, 0.025% P20, 2 mM DTT; with 0.5 mM CTP + 40 uM AdoCbl; steady state fit; apparent Kd; conditions: both partners purified
[8] = target: B2; assay: SPR; biotinylated NrdJb immobilised on streptavidin chip, 0-2 uM NrdJa injected; 30 mM Tris-HCl pH 7.0, 10 mM MgCl2, 0.025% P20, 2 mM DTT; with 0.5 mM dATP; steady state fit; apparent Kd; conditions: both partners purified
[9] = target: B2; assay: SPR; biotinylated NrdJb immobilised on streptavidin chip, 0-2 uM NrdJa injected at 30 ul/min; 30 mM Tris-HCl pH 7.0, 10 mM MgCl2, 0.025% P20, 2 mM DTT; no additive; steady state fit; apparent Kd; conditions: both partners purified

B1: NrdJa-NrdJb (split class II ribonucleotide reductase, PA NrdJ) (Pseudomonas aeruginosa PAO1) (protein)
chain: MLRTVAGFGRPNNHREVNQRMAKTDARSPRTERGTIALQDASQDIWDKKYRLKSKDGTPVDASVDGTWQRVARALADVEDKASREHWYGRFLWALRNGAIPAGRIISNAGALGHKPATSTINCTVSGTIQDSMDNILEKVHEAGLTLKAGCGIGYEFSTLRPRGAYVSGAGAYTSGPLSFMDIYDKMCFTVSSAGGRRGAQMGTFDVSHPDVREFIRAKREDGRLRQFNLSLLITDQFMQAVEQDADWPLVFPVHVKERDEIDLDDPNAVVWREWPIQDDYVQRADGLVACKVYGQVRARHLWDMIMVSTYDYAEPGFILIDRVNELNNNWWCEAIRATNPCGEQPLPPYGSCLLGSVNLTCFVEQPFGDEARFDWDRFREVVRVFTRMLDNVVEINGLPLEQQRQEILGKRRHGMGFLGLGSTLTLLKLRYGSPEACVFTEEVAREMALVGWEVALELAREKGPAPILAQDYEVTAEMLRKRPEMAADGYKAGDRIRGSVLHAKYSRYMQRVAEHAPELIEALAETGARFTHHSSIAPTGTISLSLANNASNGIEPSFAHHYSRNLIREGRKTKEKVEVYSYELLAYRTLVNAQALPDSDDPARRLPDYFITADSVTPAQHMDIQAAAQKWVDSSISKTANVPTDYPFEDFKDIYRYAWHQGLKGCTTFRFNPEAFQGVLVKESDLEKTRYRFELEDGSVVEFKGNEQVEYDGEIHTAANLFDALKEGYYGKY
notes: E. coli BL21(DE3); NrdJa untagged in pET22, 734 residues; NrdJb 229 residues, codon-optimised, 6xHis in pET21 (C-terminal in results, N-terminal in methods); proposed (NrdJa-NrdJb)2; with Class II (cobalamin-dependent) ribonucleotide-diphosphate reductase subunit, NrdJb
- Km [1]: 220 ± 60 µM

Binder: B2
- stoichiometry N [2]: 2

B3: NrdJb subunit of the split class II ribonucleotide reductase from Pseudomonas aeruginosa (enzyme, UniProt Q9HT77 1-229, looked up)
chain: MSAVKITQKIKGFKVVNEAEEQALAAAAEAASVVQMDETLERPDTLIGATYKIKSPLFEHALYVTINDMVLNAGTAHEQRRPFEIFINSKNMDHFQWIVALTRIMSAVFRKGGDCTFLVEELKAVFDPRGGYLKKGGIYMPSIVAEIGGVLERHLTAIGLLRGPELDEEQRLFLAEKRAAYEAAQGTSKVEPGEGFPAGAQLCGKCNSMAVVQMDGCATCLNCGHSKCG
modifications: biotin linker (0.05 biotin linker/NrdJb monomer) where NrdJb was immobilised on the streptavidin chip for SPR
notes: NrdJb, small subunit of the split class II ribonucleotide reductase (NrdJ) of Pseudomonas aeruginosa; 229 residues in PA; the gene encoding NrdJb was custom synthesised with codon optimisation for E. coli and cloned into pET21; No cleavage of the tag is described; Probably the whole 229-residue protein; also called PA NrdJb; His-tagged NrdJb; source: E. coli BL21(DE3), pET21, codon-optimised …
- Kd [3]: 680 ± 100 nM
- stoichiometry from the enzyme activity titration (activity leveled off at approximately equimolar concentration of NrdJa and NrdJb) [4]: 1
- Kd [5]: 360 ± 90 nM
- Kd [6]: 54 ± 12 nM
- Kd [7]: 300 ± 190 nM
- Kd [8]: 91 ± 17 nM
- Kd [9]: 690 ± 60 nM
